Reference: patent publication US20190330344A1 (F STAR THERAPEUTICS, published 2019)

Assays:
[1] = target: mouse LAG-3 expressed on cells (HEK cells expressing mLAG-3 or DO11.10 mLAG-3) (mouse) (UniProt Q61790); experiment: cell-based or functional assay
human FcγRI (human) = human FcγRI (human) (UniProt P12314); experiment: SPR (Biacore T200), FcγR immobilised, 200 µg/ml analyte
human FcγRIII (human) = human FcγRIII (human) (UniProt P08637); experiment: as above
human FcγRIIa (human) = human FcγRIIa (human) (UniProt P12318); experiment: SPR (Biacore T200), FcγR immobilised, 500 µg/ml analyte
human FcγRIIb (human) = human FcγRIIb (human) (UniProt P31994); experiment: as above
[2] = target: T1, human LAG-3 expressed on cells (DO11.10 or HEK 293 cells over-expressing human LAG-3) (human, UniProt P18627 23-525); experiment: cell-based or functional assay
T1 sequence: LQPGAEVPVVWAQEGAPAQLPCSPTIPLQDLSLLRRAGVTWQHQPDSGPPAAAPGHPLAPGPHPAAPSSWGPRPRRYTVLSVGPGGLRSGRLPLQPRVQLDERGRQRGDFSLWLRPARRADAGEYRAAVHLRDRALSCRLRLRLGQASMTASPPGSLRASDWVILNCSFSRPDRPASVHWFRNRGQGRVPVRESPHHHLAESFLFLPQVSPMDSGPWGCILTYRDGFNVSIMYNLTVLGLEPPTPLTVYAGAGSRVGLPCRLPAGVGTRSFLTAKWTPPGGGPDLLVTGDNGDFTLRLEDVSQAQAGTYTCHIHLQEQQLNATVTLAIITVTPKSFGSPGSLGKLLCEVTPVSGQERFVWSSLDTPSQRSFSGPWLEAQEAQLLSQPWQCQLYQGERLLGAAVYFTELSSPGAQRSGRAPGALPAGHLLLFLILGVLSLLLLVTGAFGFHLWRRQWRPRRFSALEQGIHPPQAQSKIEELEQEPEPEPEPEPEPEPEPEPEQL

[3] = target: T2, mouse LAG-3 expressed on cells (HEK cells expressing mLAG-3 or DO11.10 mLAG-3) (mouse, UniProt Q61790 24-521); experiment: cell-based or functional assay
T2 sequence: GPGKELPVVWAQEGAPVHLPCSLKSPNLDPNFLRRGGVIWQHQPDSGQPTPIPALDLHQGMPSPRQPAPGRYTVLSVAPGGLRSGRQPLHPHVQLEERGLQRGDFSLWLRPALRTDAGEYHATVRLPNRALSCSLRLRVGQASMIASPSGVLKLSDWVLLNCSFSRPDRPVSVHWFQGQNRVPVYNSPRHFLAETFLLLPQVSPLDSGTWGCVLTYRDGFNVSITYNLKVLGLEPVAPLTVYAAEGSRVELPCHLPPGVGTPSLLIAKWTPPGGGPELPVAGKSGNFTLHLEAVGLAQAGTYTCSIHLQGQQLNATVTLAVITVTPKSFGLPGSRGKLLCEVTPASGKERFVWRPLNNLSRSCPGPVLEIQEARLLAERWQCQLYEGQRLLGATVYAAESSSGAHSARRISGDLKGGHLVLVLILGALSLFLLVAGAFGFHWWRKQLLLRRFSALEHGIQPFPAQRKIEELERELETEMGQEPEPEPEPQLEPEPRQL

human FcγRI (human), sequence (P12314 16-288 limits assumed): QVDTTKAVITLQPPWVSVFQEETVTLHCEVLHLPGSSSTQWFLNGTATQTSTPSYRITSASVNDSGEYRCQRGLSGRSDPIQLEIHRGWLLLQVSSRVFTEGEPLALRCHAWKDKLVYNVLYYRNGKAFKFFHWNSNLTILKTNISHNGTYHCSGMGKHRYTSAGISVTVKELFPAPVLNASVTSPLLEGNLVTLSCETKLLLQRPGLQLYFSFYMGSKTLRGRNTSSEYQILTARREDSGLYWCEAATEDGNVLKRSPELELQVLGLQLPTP
human FcγRIIa (human), sequence (P12318 36-218 limits assumed): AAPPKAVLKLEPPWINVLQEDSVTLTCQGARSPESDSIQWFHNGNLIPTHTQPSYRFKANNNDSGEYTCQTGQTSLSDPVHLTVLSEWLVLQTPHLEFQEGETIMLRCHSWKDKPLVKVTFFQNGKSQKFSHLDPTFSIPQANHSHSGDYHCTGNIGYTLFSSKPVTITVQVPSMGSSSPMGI
human FcγRIII (human), sequence (P08637 17-208 limits assumed): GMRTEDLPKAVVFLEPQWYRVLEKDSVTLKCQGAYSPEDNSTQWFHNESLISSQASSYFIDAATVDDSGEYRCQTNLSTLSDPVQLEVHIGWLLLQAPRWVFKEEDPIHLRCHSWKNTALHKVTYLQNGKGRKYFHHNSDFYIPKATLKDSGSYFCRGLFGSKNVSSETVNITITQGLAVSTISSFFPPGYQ
human FcγRIIb (human), sequence (P31994 46-217 limits assumed): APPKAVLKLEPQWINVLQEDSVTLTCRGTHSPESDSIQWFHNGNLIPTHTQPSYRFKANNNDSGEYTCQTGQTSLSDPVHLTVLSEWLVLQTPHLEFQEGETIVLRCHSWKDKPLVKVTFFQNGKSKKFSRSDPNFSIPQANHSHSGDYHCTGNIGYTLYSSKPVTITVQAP

## benchmark anti-mouse LAG-3 mAb C9B7W (2B Scientific, BE0174-50MG) (antibody)
[1]
  EC50 of mIL-2 release, DO11.10 T cell activation assay (mouse LAG-3): 5.1 nM
  Maximal IL-2 release: 48 pg/mL

## mock mAb IgG1 (wild type IgG1 isotype mAb, positive control without LALA) (antibody)
Human FcγRI (human)
  Binding response at end of association (RU): 26 RU
Human FcγRIII (human)
  Binding response at end of association (RU): 44 RU
Human FcγRIIa (human)
  Binding response at end of association (RU): 13 RU
Human FcγRIIb (human)
  Binding response at end of association (RU): 17.7 RU

## mock mAb LALA (control LALA IgG1 mAb) (antibody)
Human FcγRI (human)
  Binding response at end of association (RU): 2 RU
Human FcγRIII (human)
  Binding response at end of association (RU): 8 RU
Human FcγRIIa (human)
  Binding response at end of association (RU): -12.7 RU
Human FcγRIIb (human)
  Binding response at end of association (RU): -9.6 RU

B1: anti-human LAG-3 Fcab FS18-7-95 with truncated hinge and LALA mutation (designed binder)
chain: TCPPCPAPEAAGGPSVFLFPPKPKDTLMISRTPEVTCVVVDVSHEDPEVKFNWYVDGVEVHNAKTKPREEQYNSTYRVVSVLTVLHQDWLNGKEYKCKVSNKALPAPIEKTISKAKGQPREPQVYTLPPSWDEPWGEDVSLTCLVKGFYPSDIAVEWESNGYQEDNYKTTPPVLDSDGSFFLYSKLTVPYDRWVWPDEFSCSVMHEALHNHYTQKSLSLSPG
[2]
  EC50 of mIL-2 release, DO11.10 T cell activation assay (human LAG-3): 0.8 nM

B2: anti-human LAG-3 Fcab FS18-7-58 with truncated hinge and LALA mutation (designed binder)
chain: TCPPCPAPEAAGGPSVFLFPPKPKDTLMISRTPEVTCVVVDVSHEDPEVKFNWYVDGVEVHNAKTKPREEQYNSTYRVVSVLTVLHQDWLNGKEYKCKVSNKALPAPIEKTISKAKGQPREPQVYTLPPSWDEPWGEDVSLTCLVKGFYPSDIAVEWESNGYPEIEFKTTPPVLDSDGSFFLYSKLTVPYDRWVWPDEFSCSVMHEALHNHYTQKSLSLSPG
[2]
  EC50 of mIL-2 release, DO11.10 T cell activation assay (human LAG-3): 1.3 nM

B3: anti-human LAG-3 Fcab FS18-7-36 with truncated hinge and LALA mutation (designed binder)
chain: TCPPCPAPEAAGGPSVFLFPPKPKDTLMISRTPEVTCVVVDVSHEDPEVKFNWYVDGVEVHNAKTKPREEQYNSTYRVVSVLTVLHQDWLNGKEYKCKVSNKALPAPIEKTISKAKGQPREPQVYTLPPSWDEPWGEDVSLTCLVKGFYPSDIAVEWESNGQPENNYKTTPPVLDSDGSYFLYSKLTVPYDRWVWPDEFSCSVMHEALHNHYTQKSLSLSPG
[2]
  EC50 of mIL-2 release, DO11.10 T cell activation assay (human LAG-3): 1.3 nM

B4: anti-human LAG-3 Fcab FS18-7-33 with truncated hinge and LALA mutation (designed binder)
chain: TCPPCPAPEAAGGPSVFLFPPKPKDTLMISRTPEVTCVVVDVSHEDPEVKFNWYVDGVEVHNAKTKPREEQYNSTYRVVSVLTVLHQDWLNGKEYKCKVSNKALPAPIEKTISKAKGQPREPQVYTLPPSWDEPWGEDVSLTCLVKGFYPSDIAVEWESNGQPEDNYKTTPPVLDSDGSFFLYSKLTVPYDRWVWPDEFSCSVMHEALHNHYTQKSLSLSPG
[2]
  EC50 of mIL-2 release, DO11.10 T cell activation assay (human LAG-3): 1.1 nM

B5: anti-human LAG-3 Fcab FS18-7-32 with truncated hinge and LALA mutation (designed binder)
chain: TCPPCPAPEAAGGPSVFLFPPKPKDTLMISRTPEVTCVVVDVSHEDPEVKFNWYVDGVEVHNAKTKPREEQYNSTYRVVSVLTVLHQDWLNGKEYKCKVSNKALPAPIEKTISKAKGQPREPQVYTLPPSWDEPWGEDVSLTCLVKGFYPSEIAVEWESNGQPENNYKTTPPVLDSDGSFFLYSKLTVPYDRWVWPDEFSCSVMHEALHNHYTQKSLSLSPG
[2]
  EC50 of mIL-2 release, DO11.10 T cell activation assay (human LAG-3): 1.7 nM

B6: anti-human LAG-3 Fcab FS18-7-88 with truncated hinge and LALA mutation (designed binder)
chain: TCPPCPAPEAAGGPSVFLFPPKPKDTLMISRTPEVTCVVVDVSHEDPEVKFNWYVDGVEVHNAKTKPREEQYNSTYRVVSVLTVLHQDWLNGKEYKCKVSNKALPAPIEKTISKAKGQPREPQVYTLPPSWDEPWGEDVSLTCLVKGFYPSDIAVEWESNGVPELNVKTTPPVLDSDGSFFLYSKLTVPYDRWVWPDEFSCSVMHEALHNHYTQKSLSLSPG
[2]
  EC50 of mIL-2 release, DO11.10 T cell activation assay (human LAG-3): 1.3 nM

B7: surrogate anti-mouse LAG-3 Fcab FS18-7-108-29 with truncated hinge, comprising LALA mutation (designed binder)
chain: TCPPCPAPEAAGGPSVFLFPPKPKDTLMISRTPEVTCVVVDVSHEDPEVKFNWYVDGVEVHNAKTKPREEQYNSTYRVVSVLTVLHQDWLNGKEYKCKVSNKALPAPIEKTISKAKGQPREPQVYTLPPSWDEPWGEDVSLTCLVKGFYPSDIVVEWESNGQPENNYKTTPPVLDSDGSFFLYSKLTVPFERWMWPDEFSCSVMHEALHNHYTQKSLSLSPG
[3]
  EC50 of mIL-2 release, DO11.10 T cell activation assay (mouse LAG-3): 1.9 nM

B8: anti-human LAG-3 Fcab FS18-7-9 with truncated hinge and LALA mutation (designed binder)
chain: TCPPCPAPEAAGGPSVFLFPPKPKDTLMISRTPEVTCVVVDVSHEDPEVKFNWYVDGVEVHNAKTKPREEQYNSTYRVVSVLTVLHQDWLNGKEYKCKVSNKALPAPIEKTISKAKGQPREPQVYTLPPSWDEPWGEDVSLTCLVKGFYPSDIAVEWESNGQPENNYKTTPPVLDSDGSFFLYSKLTVPYDRWVWPDEFSCSVMHEALHNHYTQKSLSLSPG
[2]
  EC50 of mIL-2 release, DO11.10 T cell activation assay (human LAG-3): 1.2 nM

B9: anti-human LAG-3 Fcab FS18-7-78 with truncated hinge and LALA mutation (designed binder)
chain: TCPPCPAPEAAGGPSVFLFPPKPKDTLMISRTPEVTCVVVDVSHEDPEVKFNWYVDGVEVHNAKTKPREEQYNSTYRVVSVLTVLHQDWLNGKEYKCKVSNKALPAPIEKTISKAKGQPREPQVYTLPPSWDEPWGEDVSLTCLVKGFYPSDIAVEWESNGYKEENYKTTPPVLDSDGSFFLYSKLTVPYDRWVWPDEFSCSVMHEALHNHYTQKSLSLSPG
[2]
  EC50 of mIL-2 release, DO11.10 T cell activation assay (human LAG-3): 1 nM

B10: anti-human LAG-3 Fcab FS18-7-62 with truncated hinge and LALA mutation (designed binder)
chain: TCPPCPAPEAAGGPSVFLFPPKPKDTLMISRTPEVTCVVVDVSHEDPEVKFNWYVDGVEVHNAKTKPREEQYNSTYRVVSVLTVLHQDWLNGKEYKCKVSNKALPAPIEKTISKAKGQPREPQVYTLPPSWDEPWGEDVSLTCLVKGFYPSDIAVEWESNGIPEWNYKTTPPVLDSDGSFFLYSKLTVPYDRWVWPDEFSCSVMHEALHNHYTQKSLSLSPG
[2]
  EC50 of mIL-2 release, DO11.10 T cell activation assay (human LAG-3): 1.1 nM

B11: surrogate anti-mouse LAG-3 Fcab FS18-7-108-35 with truncated hinge, comprising LALA mutation (designed binder)
chain: TCPPCPAPEAAGGPSVFLFPPKPKDTLMISRTPEVTCVVVDVSHEDPEVKFNWYVDGVEVHNAKTKPREEQYNSTYRVVSVLTVLHQDWLNGKEYKCKVSNKALPAPIEKTISKAKGQPREPQVYTLPPSWDEPWGEDVSLTCLVKGFYPSDISVEWESNGQPENNYKTTPPVLDSDGSFFLYSKLTVPFERWMWPDEFSCSVMHEALHNHYTQKSLSLSPG
[3]
  EC50 of mIL-2 release, DO11.10 T cell activation assay (mouse LAG-3): 1.8 nM

B12: anti-human LAG-3 Fcab FS18-7-65 with truncated hinge and LALA mutation (designed binder)
chain: TCPPCPAPEAAGGPSVFLFPPKPKDTLMISRTPEVTCVVVDVSHEDPEVKFNWYVDGVEVHNAKTKPREEQYNSTYRVVSVLTVLHQDWLNGKEYKCKVSNKALPAPIEKTISKAKGQPREPQVYTLPPSWDEPWGEDVSLTCLVKGFYPSDIAVEWESNGYAEYNYKTTPPVLDSDGSFFLYSKLTVPYDRWVWPDEFSCSVMHEALHNHYTQKSLSLSPG
[2]
  EC50 of mIL-2 release, DO11.10 T cell activation assay (human LAG-3): 1.1 nM
